The text below walks through data of paper PMC10786891, “Massively parallel profiling of RNA-targeting CRISPR-Cas13d”.

T1: EsCas13d, nuclease-dead (Eubacterium siraeum, UniProt B0MS50, R295A;H300A;R849A;H854A)
T1 sequence: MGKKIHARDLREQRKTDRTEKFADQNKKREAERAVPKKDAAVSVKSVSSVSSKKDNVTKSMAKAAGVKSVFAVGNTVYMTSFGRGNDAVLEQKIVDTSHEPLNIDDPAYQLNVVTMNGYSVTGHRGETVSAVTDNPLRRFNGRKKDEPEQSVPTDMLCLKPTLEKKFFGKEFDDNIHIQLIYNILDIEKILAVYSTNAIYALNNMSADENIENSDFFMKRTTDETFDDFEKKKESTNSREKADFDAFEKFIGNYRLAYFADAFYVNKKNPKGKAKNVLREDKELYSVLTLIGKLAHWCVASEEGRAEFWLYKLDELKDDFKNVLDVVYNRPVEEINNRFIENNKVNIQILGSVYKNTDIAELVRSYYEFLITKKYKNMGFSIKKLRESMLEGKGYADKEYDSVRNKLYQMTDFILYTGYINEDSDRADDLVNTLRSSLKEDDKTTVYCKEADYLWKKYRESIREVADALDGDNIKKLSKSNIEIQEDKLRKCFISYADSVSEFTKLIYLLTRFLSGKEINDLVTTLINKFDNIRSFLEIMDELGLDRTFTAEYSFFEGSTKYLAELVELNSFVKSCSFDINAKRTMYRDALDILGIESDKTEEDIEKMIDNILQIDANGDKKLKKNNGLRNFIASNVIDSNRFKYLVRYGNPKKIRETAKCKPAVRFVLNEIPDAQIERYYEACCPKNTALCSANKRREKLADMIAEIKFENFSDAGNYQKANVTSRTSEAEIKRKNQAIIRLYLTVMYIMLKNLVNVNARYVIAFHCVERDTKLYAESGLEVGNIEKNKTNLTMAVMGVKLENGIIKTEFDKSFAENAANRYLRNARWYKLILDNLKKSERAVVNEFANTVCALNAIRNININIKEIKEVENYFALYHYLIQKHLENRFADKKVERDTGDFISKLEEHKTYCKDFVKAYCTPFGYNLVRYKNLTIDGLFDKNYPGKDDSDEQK

B1: target 1 insU 3' of 12,insU 3' of 12 (mixed)
RNA 1: CACCCGUGCAAAAAUGCAGGGGUCUAAAACUGAGCGGAUAACCUCUCUAUGG
RNA 2: GGGAAUGGAUCCACAUCUACGAAUUCGUACCAUAGAGAGGUUUUAUCCGCUCACCGAGAUCGGAAGAGCACACGU
B2: target 1 del3,del11 (mixed)
RNA 1: B1 RNA 1
RNA 2: GGGAAUGGAUCCACAUCUACGAAUUCGUACCAUAGAGAGGUAUCCGCCACCGAGAUCGGAAGAGCACACGU
B3: target 1 insG 3' of 9,insA 3' of 6 (mixed)
RNA 1: B1 RNA 1
RNA 2: B1 RNA 2 with U43A, U44G, A45U, U46C, C48A
B4: target 1 A14U,G15A (mixed)
RNA 1: B1 RNA 1
RNA 2: GGGAAUGGAUCCACAUCUACGAAUUCGUACCAUAGAAUGGUUAUCCGCUCACCGAGAUCGGAAGAGCACACGU
B5: target 1 C2U,A14C (mixed)
RNA 1: B1 RNA 1
RNA 2: B4 RNA 2 with A37G, U38C, C50U
B6: target 2 MT 5'PFS CGA 3'PFS CUU (mixed)
RNA 1: CACCCGUGCAAAAUUGCAGGGGUCUAAAACCUUCUCCAAAUUGUUUCAUCCU
RNA 2: GGGAAUGGAUCCACAUCUACGAAUUCCGAAGGAUGAAACAAUUUGGAGAAGCUUAGAUCGGAAGAGCACACGU
B7: target 2 MT 5'PFS GAG 3'PFS AGU (mixed)
RNA 1: B6 RNA 1
RNA 2: B6 RNA 2 with C27G, G28A, A29G, C52A, U53G
B8: target 2 MT 5'PFS GCC 3'PFS CUC (mixed)
RNA 1: B6 RNA 1
RNA 2: B6 RNA 2 with C27G, G28C, A29C, U54C
B9: target 2 MT 5'PFS GGA 3'PFS UAG (mixed)
RNA 1: B6 RNA 1
RNA 2: B6 RNA 2 with C27G, C52U, U53A, U54G
B10: target 2 MT 5'PFS GGA 3'PFS UAC (mixed)
RNA 1: B6 RNA 1
RNA 2: B6 RNA 2 with C27G, C52U, U53A, U54C
B11: target 2 MT 5'PFS UUG 3'PFS CGA (mixed)
RNA 1: B6 RNA 1
RNA 2: B6 RNA 2 with C27U, G28U, A29G, U53G, U54A
B12: target 2 MT 5'PFS GGA 3'PFS UAA (mixed)
RNA 1: B6 RNA 1
RNA 2: B6 RNA 2 with C27G, C52U, U53A, U54A
B13: target 2 MT 5'PFS CGA 3'PFS UUU (mixed)
RNA 1: B6 RNA 1
RNA 2: B6 RNA 2 with C52U
B14: target 2 MT 5'PFS GGA 3'PFS CAC (mixed)
RNA 1: B6 RNA 1
RNA 2: B6 RNA 2 with C27G, U53A, U54C
B15: target 2 MT 5'PFS GAG 3'PFS CGG (mixed)
RNA 1: B6 RNA 1
RNA 2: B6 RNA 2 with C27G, G28A, A29G, U53G, U54G
B16: target 2 MT 5'PFS CAG 3'PFS CAC (mixed)
RNA 1: B6 RNA 1
RNA 2: B6 RNA 2 with G28A, A29G, U53A, U54C
B17: target 2 MT 5'PFS UUC 3'PFS ACC (mixed)
RNA 1: B6 RNA 1
RNA 2: B6 RNA 2 with C27U, G28U, A29C, C52A, U53C, U54C
B18: target 2 MT 5'PFS GCC 3'PFS CUA (mixed)
RNA 1: B6 RNA 1
RNA 2: B6 RNA 2 with C27G, G28C, A29C, U54A
B19: target 2 MT 5'PFS GGA 3'PFS CAG (mixed)
RNA 1: B6 RNA 1
RNA 2: B6 RNA 2 with C27G, U53A, U54G
B20: target 2 MT 5'PFS GCC 3'PFS CUG (mixed)
RNA 1: B6 RNA 1
RNA 2: B6 RNA 2 with C27G, G28C, A29C, U54G
B21: target 2 MT 5'PFS UAG 3'PFS UCC (mixed)
RNA 1: B6 RNA 1
RNA 2: B6 RNA 2 with C27U, G28A, A29G, C52U, U53C, U54C
B22: target 2 MT 5'PFS UCG 3'PFS CCA (mixed)
RNA 1: B6 RNA 1
RNA 2: B6 RNA 2 with C27U, G28C, A29G, U53C, U54A
B23: target 2 MT 5'PFS GAG 3'PFS CGA (mixed)
RNA 1: B6 RNA 1
RNA 2: B6 RNA 2 with C27G, G28A, A29G, U53G, U54A
B24: target 2 MT 5'PFS GGA 3'PFS CAU (mixed)
RNA 1: B6 RNA 1
RNA 2: B6 RNA 2 with C27G, U53A
B25: target 2 MT 5'PFS GUA 3'PFS UGU (mixed)
RNA 1: B6 RNA 1
RNA 2: B6 RNA 2 with C27G, G28U, C52U, U53G
B26: target 2 MT 5'PFS GAG 3'PFS CGC (mixed)
RNA 1: B6 RNA 1
RNA 2: B6 RNA 2 with C27G, G28A, A29G, U53G, U54C
B27: target 2 MT 5'PFS GGA 3'PFS CAA (mixed)
RNA 1: B6 RNA 1
RNA 2: B6 RNA 2 with C27G, U53A, U54A
B28: target 2 MT 5'PFS GGA 3'PFS UAU (mixed)
RNA 1: B6 RNA 1
RNA 2: B6 RNA 2 with C27G, C52U, U53A
B29: target 2 MT 5'PFS CAG 3'PFS CAG (mixed)
RNA 1: B6 RNA 1
RNA 2: B6 RNA 2 with G28A, A29G, U53A, U54G
B30: target 2 MT 5'PFS CGC 3'PFS AGU (mixed)
RNA 1: B6 RNA 1
RNA 2: B6 RNA 2 with A29C, C52A, U53G
B31: target 2 MT 5'PFS CGA 3'PFS CUA (mixed)
RNA 1: B6 RNA 1
RNA 2: B6 RNA 2 with U54A
B32: target 2 MT 5'PFS UUC 3'PFS ACA (mixed)
RNA 1: B6 RNA 1
RNA 2: B6 RNA 2 with C27U, G28U, A29C, C52A, U53C, U54A
B33: target 2 MT 5'PFS ACC 3'PFS UCC (mixed)
RNA 1: B6 RNA 1
RNA 2: B6 RNA 2 with C27A, G28C, A29C, C52U, U53C, U54C
B34: target 2 MT 5'PFS CAG 3'PFS CAA (mixed)
RNA 1: B6 RNA 1
RNA 2: B6 RNA 2 with G28A, A29G, U53A, U54A
B35: target 2 MT 5'PFS UUG 3'PFS CGC (mixed)
RNA 1: B6 RNA 1
RNA 2: B6 RNA 2 with C27U, G28U, A29G, U53G, U54C

Positions count from the first letter of the chain named. Names and notes keep the numbering of the source.

For the data set, the target named is T1, EsCas13d, nuclease-dead. The data set can be described thus: crRNA (strand 1, pre-loaded); Mg2+; 40 mM Tris-HCl pH 7.5, 150 mM NaCl, 6 mM MgCl2, 1 mM DTT, 0.1% Tween-20, 0.2 mg/ml BSA; 25 C; 10 min per concentration, then washed. Conditions: tags: His6-TwinStrep-SUMO cleaved; N-terminal SNAP kept (SNAP-Surface 488); label: 3' end held by stalled T7 RNA polymerase.
As to B1, binding was characterised by a dissociation constant (Kd) of 10.1 ± 0.8 nM.
In the case of B2 it was 66 ± 16 nM.
Molecule B3 returned a Kd of 13.4 ± 0.7 nM.
In the case of B4 it was 64 ± 10 nM.
The value for B5 was 80 ± 13 nM; that for B6 was 8.3 ± 1.1 nM.
The value for B7 was 9.1 ± 1.1 nM; that for B8 was 18.3 ± 2.3 nM.
For B9, the Kd is 8.7 ± 0.7 nM.
In the case of B10 it was 16.1 ± 2.7 nM; in that of B11, 11.4 ± 1 nM; in that of B12, 5.6 ± 0.9 nM.
In the case of B13 it was 9.2 ± 1.7 nM; in that of B14, 9.4 ± 1 nM; in that of B15, 5.8 ± 0.4 nM.
The molecule B16 gave a Kd of 5.6 ± 1.6 nM.
In turn, B17 showed a Kd of approximately 16 nM.
The value for B18 was 11.7 ± 2.4 nM.
In the case of B19 it was 11.5 ± 1.5 nM; in that of B20, 12.7 ± 2.1 nM.
Molecule B21 displayed a Kd of 7.9 ± 0.8 nM.
In the case of B22 it was 31 ± 11 nM; in that of B23, 4.9 ± 0.4 nM.
The value for B24 was 9.1 ± 1.1 nM.
The value for B25 was 15.2 ± 1.2 nM; that for B26 was 6.4 ± 0.4 nM; that for B27 was 6.7 ± 1.2 nM.
As to B28, binding was put at a Kd of 9.1 ± 1.1 nM.
The value for B29 was 7.2 ± 1.2 nM; that for B30 was 4.3 ± 0.6 nM; that for B31 was 8.3 ± 1.3 nM.
The value for B32 was approximately 21 nM; that for B33 was 5.5 ± 0.6 nM; that for B34 was 6.6 ± 2.7 nM.
In the case of B35 it was 15.9 ± 1.5 nM.

The Kd is the constant that tells how readily two partners part at equilibrium. Read a low Kd as higher affinity.
